Measurements from the supplement of paper PMC9170038.

Tested on: MS2 coat protein
Assay: apparent KD of MS2 coat protein; higher = weaker reporter binding
Settings: Eterna round: R107
Summary of the method: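 Designed RNA switches were made by on-chip transcription from Illumina sequencing clusters and then titrated with SNAP-549-labelled MS2 coat protein. Twofold steps ran from 0.7 or 1.5 nM to 3 µM, each lasting 0.8–1.5 h early and 10–20 min late, in 100 mM Tris-HCl pH 7.5, 80 mM KCl, 4 mM MgCl2, without or with constant ligand. Apparent KD is the per-design median of normalised cluster binding-curve fits.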

[1] = input ligand: theophylline 20 uM
[2] = input ligand: theophylline 2 mM
[3] = input ligand: tryptophan 2.4 mM

Sequence | apparent KD of MS2 coat protein (input ligand: arginine 13.2 mM) [nM] | apparent KD of MS2 coat protein (input ligand: none) [nM] | apparent KD of MS2 coat protein [1] [nM] | apparent KD of MS2 coat protein [2] [nM] | apparent KD of MS2 coat protein [3] [nM]
CUCAUCCACGCGGCCGCCACUACUUGUAGGUGUGGGUGUGUUGUGUUACAUGAGGAUCACCCAUGUAGGACCGGGCGUGGAUGAG [Whale] | 53.9 | 62.7 | 85.6 | 83.8 | 213
CUCCCUUCGGCGGCCGCCACUAACAGUUUAAUGGACUUUCGGGUCCACAUGAGGAUCACCCAUGUUAGGACCGGGCCCUUGCUCU [theeternabot_exclusion_MS2_Trp_B_39] | 8.8 | 9.2 | 17.5 | 10.6 | 10.9
CUCUCAUGAACAUGAGGAUCACCCAUGUAACGAGGACCGGUACGGCCGCCACUCGGUCGUGGAAACUAAUCGAGUGAGGUGGGAG [Tryp A Ex t5c] | 26.8 | 44.4 | 85.7 | 75.3 | 254
CUCUGAGUGAGGAAUCACUCAGAGGCGGAUACCAGCGAGGUCCAUCGCCCUUGGCAGCCGAACAUGAGGAUCACCCAUGUCGGUA [#1 Same State - Theophylline A Attempt #23 (HarryS)] | 9.44 | 9.45 | 12.1 | 13.5 | 9.3
CUGUACAUCUCGGCCGCCACUGACAUGAGGAUCACCCAUGUAGUACCUGAGAUAGACAUAUCUUACAGGACCGGGAGGUGUGCAG [SSTryp B #31] | 12.2 | 10.2 | 13.5 | 9.35 | 10.6
CUUCAGGGUGCGGCCGCCACUUAUUAGGUGCUUGCGACGCCAGCACAUGAGGAUCACCCAUGUUCAAGGACCGGGCACCACCUUU [theeternabot_sameState_MS2_Trp_B_21] | 8.14 |  | 20 | 15.1 | 
GAACAUGAGGAUCACCCAUGUAAAACAGAUACCAGUGAUAUAAUACACCCUUGGCAGCUGUAGCUGAAUAAUAAUUCCCUCAAGC [#19 SameState-TheophyllineA] | 17 |  | 21.8 |  | 16.9
GAAGAGAGGAUACCGUUUGUAUACAACGAUACCAGUGGUAUGUAUCACCCUUGGCAGCGUGAGACAUGAGGAUCACCCAUGUGGC [theeternabot_exclusion_MS2_Theo_A_46] | 14.3 |  | 26.1 |  | 18.4
GAAGGAGAACUCAUGACUCCUUCCCUGGAAGGAGCGAGCGAAAGCUCAGGUAGGUCGCCAGAAACAUGAGGAUCACCCAUGUAAU [(A)''-(M)'-(A)'-(Arg1)-(Arg2)-(M1)-(M2)_Design4] | 28.5 | 37.4 | 48 | 43.3 | 40.1
GACAAUAAUUCAACAAUCAAAAUAGUGGGACGAGGACCGGUACGGCCGCCACUCGCUGAAGCACAUGAGGAUCACCCAUGUCUAA [theeternabot_exclusion_MS2_Trp_A_47] | 14.8 |  | 19.8 | 18.7 | 
GACAUGAGGAUCACCCAUGUACCGCGAGAAGGAGCGCGGAUAAACGCAGGUAGGUCGCUCGUGGGCUUACAUUCAAGUGUAAGCU [Usarat] | 49 | 106 | 143 | 118 | 31.3
GAGCUGAUGUAGAAAUUUUAUUUCUGAGAUACCAGUACAGAAAUGUACCCUUGGCAGCUCAGUUUUACAUGAGGAUCACCCAUGU [Ex Theophylline A 15] | 14.8 |  | 15.6 |  | 13.1
GAGCUGAUGUAGAGCCUUUAGUUCUGAGAUACCAGUACAGAAAUGUACCCUUGGCAGCUCAGCUUUACAUGAGGAUCACCCAUGU [Ex Theophylline A 17] | 20 |  | 27.7 |  | 23.5
GAGGAAACUCACAUGAGGAUCACCCAUGUACGAGGACCGGUACGGCCGCCACUCGAAACCAUGGGCGGUAGUACAUGGAAACAUG [Design 2 MOD] | 34 |  | 65.8 | 75.5 | 
GAGGGUGAGCCUCUGGUCCGUUUGACGGAUACCAGCGAGAGGUCUCGCCCUUGGCAGCCGACGACAUGAGGAUCACCCAUGUUAA [#09 Exclusion-TheophyllineA] | 17.3 | 17.1 | 21.4 | 19.2 | 15.7
GAUAUAUAGGCGGCCGCCACUGAUUUUCAUAUAUAUAUAACAUGAGGAUCACCCAUGUAGAUAUACAGGACCGGGCCUAUAUAUU [aaaB] | 15.5 |  | 16 | 16 | 
GAUCGACAAAACGUCUAGGAAAACUAGACGCGAGGACCGGUACGGCCGCCACUCGUCCUCACAUGAGGAUCACCCAUGUACGAUC [#SwitchBubble 2 #CuTurnoff] | 30.3 |  | 43.2 | 46.3 | 
GCACCAGGUACGGAUACCAGCUAUAGGUACAUGUCAGGACAUGAGGAUCACCCAUGUGGUAGCCCUUGGCAGCUGUACCUGGUGC [EThB NP+V+V2 #2] | 18.5 |  | 26.3 |  | 19.1
GCAUCCUAGUCGGCCGCCACUGCAAUUGUAGUACUGCUACAUGAACAUGAGGAUCACCCAUGUAGCAGGACCGGGACUAGGAUGC [(Trp1)-(TM)''-(TM)'-(Ms2)-(Trp2)_Design10] | 44.4 |  | 78.5 | 68.5 | 

Sequence | apparent KD of MS2 coat protein (input ligand: arginine 13.2 mM) [nM] | apparent KD of MS2 coat protein (input ligand: none) [nM] | apparent KD of MS2 coat protein [1] [nM] | apparent KD of MS2 coat protein [2] [nM] | apparent KD of MS2 coat protein [3] [nM]
GCAUCCUAGUCGGCCGCCACUGCAUCACCAGUGGCAGGUGAUCAACAUGAGGAUCACCCAUGUAGCAGGACCGGGACUAGGAUGC [(Trp1)-(TM)''-(TM)'-(Ms2)-(Trp2)_Design4] | 113 |  | 163 | 168 | 
GCAUCCUAGUCGGCCGCCACUGCAUGUAGGCAGUGCUGCUACAAACAUGAGGAUCACCCAUGUAGCAGGACCGGGACUAGGAUGC [(Trp1)-(MT2)''-(T1)'-(MT2)'-(Ms2)-(Trp2)_Design2] | 13 |  | 18.5 | 15.6 | 
GCCAGACAUGAGGAUCACCCAUGUAGCGAUACCAGCUCUGUUGUGAGCCCUUGGCAGCGCACUGGCAUCGUAGGUGAUCCAAUAA [(T)''-(Ms2)-(Theo)-(T)'-(M)'_Design1] | 50.4 |  | 114 |  | 45.9
GCCGGGCCCGCGGCCGCCACUGAGAGAGUCGUGUGAACAUGAGGAUCACCCAUGUAAUAUAUAUACAGGACCGGGCGGGCCCGGC [4.X] | 13.8 | 10.4 | 20.1 | 15.7 | 13.9
GCCUAGCAGCGAAGGAGCGACAUCGGCGCAUGCGAGGACAUGAGGAUCACCCAUGUACCAUGUCAGGUAGGUCGCGCUGCUAGGC [EAB NP+V+V2 #6] | 17.9 | 23.4 | 36.4 | 23.2 | 24.5
GCGAUGGAGCGAAGGAGCGGCUAAAUGUAUCACAUGAGGAUCACCCAUGUUCCAGGAUGUGGCCAGGUAGGUCGCGCUCCAUCGC [SSAB NP+V+V2 #16] | 233 | 229 | 212 | 322 | 288
GCGAUGGAGCGAAGGAGCGUGCUGGUACAUGAGGAUCACCCAUGUGAGUCGCAGCGCUAAGCACAGGUAGGUCGCGCUCCAUCGC [EAB NP+V+V2 #11] | 49.1 | 28 | 35.3 | 34.5 | 34.2
GCGGUACGUACUGAUACCAGAGACAUGAGGAUCACCCAUGUCCCAUGGUCAUGCCUCAGACUCCCUUGGCAGCAGGAUAAGUGCG [Exclusion Theophylline B GF3] | 14.3 | 13.9 | 17.1 | 40.4 | 12.8
GCGUACGAUCGGGAUACCAGACAUUGCCGUUAGGGUGAACUUGAGGAUCACCCAAGUUUUGUCCCUUGGCAGCCCGAUCGUACGC [ETB NP+V+V2 #9 Diff Apt, Same Structure] | 9.92 | 10 | 19.4 | 220 | 10.4
GCGUUCUCUGCGGCCGCCACUCAAGGAGCUACAUAGCUCCUAGACAUGAGGAUCACCCAUGUCGCGAGGACCGGGUAGAUCCUUA [Same State Typptophan B GF8] | 116 | 159 | 288 | 360 | 120
GCGUUCUCUGCGGCCGCCACUCAAGGAGCUACAUAGCUCCUAGACAUGAGGAUCACCCAUGUGGCGAGGACCGGGUAGAUCCUUA [Same State Typptophan B GF7] | 76.3 |  | 359 | 337 | 
GCGUUGGCCACGGCCGCCACUCAGGUACCGCGCGUAGUGAACUUACAUGAGGAUCACCCAUGUCUGAGGACCGGGUGGCCGCCAC [theeternabot_sameState_MS2_Trp_B_27] | 31.7 |  | 70.3 | 46.1 | 
GCUACAUGAGGAUCACCCAUGUGUACUGAAGGAGCGGCGGAAACGCCAGGUAGGUCGCAGUAUGUGGCUCUGGGCACGAGAAAGC [SSAA NP+V+V2 #2] | 36.6 | 25.3 | 28.3 | 72.9 | 34.3
GCUAGGUCAUCGGCCGCCACUAACGACGGUUCCAACAUGAGGAUCACCCAUGUGCCACAUGCGCAUAGGACCGGGAUGACCUAGC [SSTB NP+V+V2 #5] | 31.1 |  | 51.2 | 42.7 | 
GCUAGUGGCAGAAGGAGCGGCAUACAUGCAAGUGACAUGAGGAUCACCCAUGUAAGGGAAUGCCAGGUAGGUCGCUGCCACUAGC [EAB NP+V+V2 #2 +-Same Structure] | 36.2 | 61.5 | 89.6 | 89.2 | 64.2
GCUGCCGUCGGUGAAAACUCCCAUGCAGAUACCAGCGCAUUCCGCCGCCCUUGGCAGCUGCAUACAUGAGGAUCACCCAUGUGUU [theeternabot_exclusion_MS2_Theo_A_48] | 41.4 |  | 161 |  | 77.3
GGACUAACCUGAAGGAGCGACACGCAGAAACUGCAAAUUCCUCCACACGAGGAUCACCCGUGUCAGGUAGGUCGCAGGUUAGUCG [ArgBX 28] | 19 | 20.2 | 25.7 | 21.6 | 19.2
GGACUAACCUGAAGGAGCGGCACGCAGAAACUGCAAAUUCCUCCACACGAGGAUCACCCGUGUCAGGUAGGUCGCAGGUUAGUCG [ArgBX 28] | 18 | 17.1 | 23.3 | 22.9 | 20.3
